In the supplement of paper PMC9112550, “Optimization of the antimicrobial peptide Bac7 by deep mutational scanning” (BMC Biology, 2022):

Tested on: Escherichia coli TOP10
Assay: shrunken log2 fold change of peptide-encoding DNA abundance (4.5 h post-induction vs induction); higher = less antimicrobial activity (less host growth inhibition)
Conditions: time post-induction: 4.5 h; library: site-saturation at positions 5, 18, 19, 20
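Further: peptides expressed intracellularly from a pBAD plasmid library in pooled LB shake-flask culture, induced with 0.3% L-arabinose, DNA abundance read by NGS, three biological replicates, DESeq2 with apeglm shrinkage.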

RRIRDRPPRLPRPRPRPIYGPRP
shrunken log2 fold change: -0.0774

RRIRWRPPRLPRPRPRPCFWPRP
shrunken log2 fold change: 0.213

RRIRLRPPRLPRPRPRPVIVPRP
shrunken log2 fold change: -0.0265

RRIRKRPPRLPRPRPRPKSWPRP
shrunken log2 fold change: 0.308

RRIRHRPPRLPRPRPRPPTRPRP
shrunken log2 fold change: 0.429

RRIRERPPRLPRPRPRPIDIPRP
shrunken log2 fold change: -0.01

RRIRTRPPRLPRPRPRPWYRPRP
shrunken log2 fold change: -0.23

RRIRYRPPRLPRPRPRPKRAPRP
shrunken log2 fold change: 0.28

RRIRERPPRLPRPRPRPLLEPRP
shrunken log2 fold change: 0.105

RRIRFRPPRLPRPRPRPVESPRP
shrunken log2 fold change: -0.0712

RRIRMRPPRLPRPRPRPCIIPRP
shrunken log2 fold change: -0.798

RRIRRRPPRLPRPRPRPWWQPRP
shrunken log2 fold change: 0.0834

RRIRLRPPRLPRPRPRPDYTPRP
shrunken log2 fold change: -0.295

RRIRHRPPRLPRPRPRPRFAPRP
shrunken log2 fold change: 0.0665

RRIRPRPPRLPRPRPRPKAWPRP
shrunken log2 fold change: -0.0274

RRIRDRPPRLPRPRPRPAIWPRP
shrunken log2 fold change: 0.24

RRIRMRPPRLPRPRPRPIHYPRP
shrunken log2 fold change: -0.689

RRIRMRPPRLPRPRPRPMASPRP
shrunken log2 fold change: 0.00888

RRIRHRPPRLPRPRPRPVMVPRP
shrunken log2 fold change: -2.78e-05

RRIRWRPPRLPRPRPRPDFGPRP
shrunken log2 fold change: -0.0549

RRIRSRPPRLPRPRPRPQDHPRP
shrunken log2 fold change: -0.794

RRIRPRPPRLPRPRPRPYMQPRP
shrunken log2 fold change: -0.681

RRIRFRPPRLPRPRPRPYNLPRP
shrunken log2 fold change: -0.322

RRIRDRPPRLPRPRPRPNRLPRP
shrunken log2 fold change: 0.0873

RRIRPRPPRLPRPRPRPDGVPRP
shrunken log2 fold change: 0.14

RRIRVRPPRLPRPRPRPCGHPRP
shrunken log2 fold change: 0.0386

RRIRFRPPRLPRPRPRPCEGPRP
shrunken log2 fold change: -0.086

RRIRQRPPRLPRPRPRPNYWPRP
shrunken log2 fold change: -0.251

RRIRDRPPRLPRPRPRPRAWPRP
shrunken log2 fold change: 0.0227

RRIRMRPPRLPRPRPRPAFHPRP
shrunken log2 fold change: 0.319

RRIRSRPPRLPRPRPRPYPYPRP
shrunken log2 fold change: -0.646

RRIRHRPPRLPRPRPRPYCMPRP
shrunken log2 fold change: -1.05

RRIRIRPPRLPRPRPRPMMCPRP
shrunken log2 fold change: 0.0233

RRIRARPPRLPRPRPRPVGVPRP
shrunken log2 fold change: 0.528

RRIRSRPPRLPRPRPRPMWNPRP
shrunken log2 fold change: -0.204

RRIRLRPPRLPRPRPRPWIAPRP
shrunken log2 fold change: 0.0439

RRIRERPPRLPRPRPRPDACPRP
shrunken log2 fold change: -0.0198

RRIRARPPRLPRPRPRPHMQPRP
shrunken log2 fold change: 2.87

RRIRCRPPRLPRPRPRPDLDPRP
shrunken log2 fold change: 0.0676

RRIRYRPPRLPRPRPRPVTCPRP
shrunken log2 fold change: -0.0508

RRIRYRPPRLPRPRPRPGKHPRP
shrunken log2 fold change: 0.0354

RRIRYRPPRLPRPRPRPACMPRP
shrunken log2 fold change: -0.0495

RRIRMRPPRLPRPRPRPMMCPRP
shrunken log2 fold change: -0.0746

RRIRERPPRLPRPRPRPLTIPRP
shrunken log2 fold change: -0.101

RRIRPRPPRLPRPRPRPFETPRP
shrunken log2 fold change: -0.117

RRIRVRPPRLPRPRPRPDMKPRP
shrunken log2 fold change: 0.0218

RRIRFRPPRLPRPRPRPYGIPRP
shrunken log2 fold change: -0.00674

RRIRCRPPRLPRPRPRPDHHPRP
shrunken log2 fold change: -0.246

RRIRARPPRLPRPRPRPHYCPRP
shrunken log2 fold change: -0.17

RRIRRRPPRLPRPRPRPRTAPRP
shrunken log2 fold change: 0.458

RRIRDRPPRLPRPRPRPEPHPRP
shrunken log2 fold change: 0.533

RRIRWRPPRLPRPRPRPTYIPRP
shrunken log2 fold change: -0.428

RRIRLRPPRLPRPRPRPNDIPRP
shrunken log2 fold change: -0.723

RRIRNRPPRLPRPRPRPGHGPRP
shrunken log2 fold change: -0.19

RRIRNRPPRLPRPRPRPMDHPRP
shrunken log2 fold change: 0.0184

RRIRARPPRLPRPRPRPFWDPRP
shrunken log2 fold change: 0.00119

RRIRSRPPRLPRPRPRPDCCPRP
shrunken log2 fold change: 0.227

RRIRLRPPRLPRPRPRPDRKPRP
shrunken log2 fold change: -0.0365

RRIRARPPRLPRPRPRPKIPPRP
shrunken log2 fold change: 0.174

RRIRQRPPRLPRPRPRPVLHPRP
shrunken log2 fold change: -0.149

RRIRIRPPRLPRPRPRPFPPPRP
shrunken log2 fold change: -0.353

RRIRPRPPRLPRPRPRPLDCPRP
shrunken log2 fold change: 0.0595

RRIRVRPPRLPRPRPRPMHKPRP
shrunken log2 fold change: -0.192

RRIRFRPPRLPRPRPRPYQVPRP
shrunken log2 fold change: -0.153

RRIRMRPPRLPRPRPRPCREPRP
shrunken log2 fold change: -0.126

RRIRGRPPRLPRPRPRPPVWPRP
shrunken log2 fold change: 0.861

RRIRERPPRLPRPRPRPCLVPRP
shrunken log2 fold change: 0.0202

RRIRCRPPRLPRPRPRPWACPRP
shrunken log2 fold change: -0.0929

RRIRARPPRLPRPRPRPWTHPRP
shrunken log2 fold change: 0.04

RRIRARPPRLPRPRPRPTLPPRP
shrunken log2 fold change: 0.263

RRIRSRPPRLPRPRPRPASPPRP
shrunken log2 fold change: -0.0809

RRIRVRPPRLPRPRPRPGITPRP
shrunken log2 fold change: -0.238

RRIRARPPRLPRPRPRPYLPPRP
shrunken log2 fold change: 0.0397

RRIRIRPPRLPRPRPRPFMMPRP
shrunken log2 fold change: 0.0298

RRIRGRPPRLPRPRPRPNSRPRP
shrunken log2 fold change: 0.107

RRIRLRPPRLPRPRPRPGCKPRP
shrunken log2 fold change: -0.0977

RRIRLRPPRLPRPRPRPAFIPRP
shrunken log2 fold change: -0.116

RRIRSRPPRLPRPRPRPFDKPRP
shrunken log2 fold change: -0.232

RRIRSRPPRLPRPRPRPYFGPRP
shrunken log2 fold change: -0.642

RRIRFRPPRLPRPRPRPSKQPRP
shrunken log2 fold change: -0.101

RRIRMRPPRLPRPRPRPQEIPRP
shrunken log2 fold change: -0.00046

RRIRRRPPRLPRPRPRPCAEPRP
shrunken log2 fold change: 0.393

RRIRFRPPRLPRPRPRPDSMPRP
shrunken log2 fold change: -0.715

RRIRHRPPRLPRPRPRPYIQPRP
shrunken log2 fold change: -0.73

RRIRARPPRLPRPRPRPWVMPRP
shrunken log2 fold change: -0.156

RRIRVRPPRLPRPRPRPIFPPRP
shrunken log2 fold change: 0.199

RRIRFRPPRLPRPRPRPPKCPRP
shrunken log2 fold change: 0.0793

RRIRARPPRLPRPRPRPSIPPRP
shrunken log2 fold change: -0.349

RRIRARPPRLPRPRPRPLEIPRP
shrunken log2 fold change: 0.0728

RRIRPRPPRLPRPRPRPIWEPRP
shrunken log2 fold change: 0.0926

RRIRNRPPRLPRPRPRPATHPRP
shrunken log2 fold change: 0.224

RRIRCRPPRLPRPRPRPDQYPRP
shrunken log2 fold change: -0.277

RRIRQRPPRLPRPRPRPTDMPRP
shrunken log2 fold change: -0.0372

RRIRNRPPRLPRPRPRPCNEPRP
shrunken log2 fold change: -0.0138

RRIRYRPPRLPRPRPRPDMCPRP
shrunken log2 fold change: -0.0185

RRIRERPPRLPRPRPRPSTPPRP
shrunken log2 fold change: -0.28

RRIRCRPPRLPRPRPRPGQLPRP
shrunken log2 fold change: -0.00796

RRIRPRPPRLPRPRPRPPNHPRP
shrunken log2 fold change: 0.0555

RRIRSRPPRLPRPRPRPHECPRP
shrunken log2 fold change: -0.0285

RRIRSRPPRLPRPRPRPHNSPRP
shrunken log2 fold change: -0.357

RRIRLRPPRLPRPRPRPMTHPRP
shrunken log2 fold change: -0.22

RRIRSRPPRLPRPRPRPGWKPRP
shrunken log2 fold change: 0.0342

RRIRRRPPRLPRPRPRPRCGPRP
shrunken log2 fold change: 0.474

RRIRARPPRLPRPRPRPIEVPRP
shrunken log2 fold change: 0.0287

RRIRIRPPRLPRPRPRPMRAPRP
shrunken log2 fold change: 1.01

RRIRFRPPRLPRPRPRPSWDPRP
shrunken log2 fold change: -0.152

RRIRYRPPRLPRPRPRPMVFPRP
shrunken log2 fold change: -0.00776

RRIRDRPPRLPRPRPRPCVVPRP
shrunken log2 fold change: -0.00921

RRIRTRPPRLPRPRPRPVEQPRP
shrunken log2 fold change: 0.112

RRIRNRPPRLPRPRPRPEIKPRP
shrunken log2 fold change: 0.101

RRIRKRPPRLPRPRPRPHTHPRP
shrunken log2 fold change: -0.0896

RRIRDRPPRLPRPRPRPVCRPRP
shrunken log2 fold change: 0.251

RRIRMRPPRLPRPRPRPGKEPRP
shrunken log2 fold change: 0.137

RRIRQRPPRLPRPRPRPDALPRP
shrunken log2 fold change: -0.0392

RRIRCRPPRLPRPRPRPPDSPRP
shrunken log2 fold change: -0.0091

RRIRSRPPRLPRPRPRPWPRPRP
shrunken log2 fold change: 0.646

RRIRPRPPRLPRPRPRPNWAPRP
shrunken log2 fold change: 0.176

RRIRMRPPRLPRPRPRPLMYPRP
shrunken log2 fold change: -0.295

RRIRDRPPRLPRPRPRPGSPPRP
shrunken log2 fold change: 0.0355

RRIRCRPPRLPRPRPRPNPPPRP
shrunken log2 fold change: 0.557

RRIRMRPPRLPRPRPRPHVLPRP
shrunken log2 fold change: -0.00145

RRIRMRPPRLPRPRPRPCDEPRP
shrunken log2 fold change: 0.877

RRIRMRPPRLPRPRPRPYCHPRP
shrunken log2 fold change: -0.545

RRIRVRPPRLPRPRPRPPMDPRP
shrunken log2 fold change: -0.291

RRIRWRPPRLPRPRPRPISQPRP
shrunken log2 fold change: -0.392

RRIRMRPPRLPRPRPRPTIMPRP
shrunken log2 fold change: 0.176

RRIRKRPPRLPRPRPRPFKLPRP
shrunken log2 fold change: 0.0306

RRIRPRPPRLPRPRPRPYIDPRP
shrunken log2 fold change: -0.331

RRIRVRPPRLPRPRPRPQFEPRP
shrunken log2 fold change: -0.119

RRIRSRPPRLPRPRPRPAPQPRP
shrunken log2 fold change: 0.461

RRIRVRPPRLPRPRPRPIFMPRP
shrunken log2 fold change: -0.363

RRIRYRPPRLPRPRPRPMVYPRP
shrunken log2 fold change: -0.00783

RRIRKRPPRLPRPRPRPHMMPRP
shrunken log2 fold change: 0.217

RRIRTRPPRLPRPRPRPMPMPRP
shrunken log2 fold change: 0.467

RRIRCRPPRLPRPRPRPECRPRP
shrunken log2 fold change: 0.0543

RRIRGRPPRLPRPRPRPVIYPRP
shrunken log2 fold change: 0.0164

RRIRARPPRLPRPRPRPFTVPRP
shrunken log2 fold change: -0.253

RRIRLRPPRLPRPRPRPGSYPRP
shrunken log2 fold change: 0.186

RRIRQRPPRLPRPRPRPASFPRP
shrunken log2 fold change: 0.0572

RRIRSRPPRLPRPRPRPMCMPRP
shrunken log2 fold change: -0.000628

RRIRCRPPRLPRPRPRPCELPRP
shrunken log2 fold change: -0.146

RRIRARPPRLPRPRPRPYCTPRP
shrunken log2 fold change: -0.0621

RRIRLRPPRLPRPRPRPINGPRP
shrunken log2 fold change: 0.015

RRIRMRPPRLPRPRPRPHRIPRP
shrunken log2 fold change: 0.0956

RRIRKRPPRLPRPRPRPVPMPRP
shrunken log2 fold change: 0.355

RRIRHRPPRLPRPRPRPLQCPRP
shrunken log2 fold change: -0.0439

RRIRARPPRLPRPRPRPDHIPRP
shrunken log2 fold change: -0.126

RRIRLRPPRLPRPRPRPDYKPRP
shrunken log2 fold change: -0.354

RRIRMRPPRLPRPRPRPWDMPRP
shrunken log2 fold change: 0.00416

RRIRVRPPRLPRPRPRPTSHPRP
shrunken log2 fold change: -0.139
